# Patent US20180199611A1 (UNIVERSITY OF FLORIDA RESEARCH FOUNDATION, published 2018)
# B1: DlaT 245-259 peptide (VAPPAPVAPSAPVAA) (peptide)
# peptide: VAPPAPVAPSAPVAA
# notes: Synthetic 15-mer; It was loaded in a custom PE-labeled I-A(b) tetramer; also called Tetramer DlaT^245 peptide; pep of dihydrolipoamide acyltransferase
# Target: T1, I-A(b) MHC II molecule (;mouse, UniProt P14434 24-218; P14483 28-226)
# T1 construct: Custom-prepared PE-labeled tetramer
# T1 sequence (MHC II alpha): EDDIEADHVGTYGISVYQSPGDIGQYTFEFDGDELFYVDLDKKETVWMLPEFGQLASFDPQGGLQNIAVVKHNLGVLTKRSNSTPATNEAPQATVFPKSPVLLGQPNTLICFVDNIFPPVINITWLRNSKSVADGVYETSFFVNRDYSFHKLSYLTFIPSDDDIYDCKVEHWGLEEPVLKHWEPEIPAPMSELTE
# T1 sequence (MHC II beta): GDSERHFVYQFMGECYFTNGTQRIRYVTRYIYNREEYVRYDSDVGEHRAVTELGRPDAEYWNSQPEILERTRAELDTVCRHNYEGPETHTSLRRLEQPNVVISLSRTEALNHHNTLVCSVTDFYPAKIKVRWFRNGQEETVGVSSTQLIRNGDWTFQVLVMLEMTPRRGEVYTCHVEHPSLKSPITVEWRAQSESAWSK
# Experiment: peptide binding to MHC II during preparation of I-A(b) tetramers; method not described
binder,measurement,value
B1,binding result,binds
